The source of these data is patent US20200347143A1 (GLENMARK PHARMACEUTICALS S A, published 2020).

A word on the Kd: it is the equilibrium constant for the complex coming apart. A word on the koff: it is the first-order rate constant of dissociation. For orientation: kon means the rate constant with which the complex forms.

The target in one assay is rat OX40-Fc (rat). Briefly: ELISA on coated rat OX40-Fc. As for the experimental part:
(§1) These constructs were expressed in HEK293-EBNA1 cells and purified using protein A. Then, human and rat OX40-Fc were tested in ELISA and Biacore to determine antibody cross-reactivity. For the ELISA, 96 well-microtiter plates (Costar USA, distributor VWR AG, Nyon, Switzerland) were coated with 100 μl of recombinant human or rat OX40-Fc at 2 μg/ml in PBS. Plates were incubated overnight at 4° C. and were then blocked with PBS 2% BSA (Bovine Serum Albumine, PAA Laboratories, Pasching, Austria) at room temperature (RT) for one hour. The blocking solution was removed and the purified antibodies were added at 10 μg/ml in PBS 2% BSA. The plates were incubated at RT for 1 hour, then washed 5 times with PBS 0.01% Tween-20 (Sigma-Aldrich Chemie GmbH, Buchs, Switzerland). […] Plates were incubated for 1 hour at RT, washed 5 times with PBS 0.01% Tween-20 and the TMB substrate (Bio-rad Laboratories AG, Reinach, Switzerland) was added to the plates and the reaction stopped after 5 minutes by adding H₂SO₄. Absorbance was then read at 450 nm by a microplate reader (Biotek, USA; distributor: WITTEC AG, Littau, Switzerland). Biacore experiments were specifically conducted with Hexa-hzG3V9 and Hexa-hz1D10v1 which are dAb-Fc fusion proteins. […] Binding of human and cyno OX40-Fc molecules was determined by successively injecting these proteins on the 4 flow-paths (flow-path 1 and 3 being used as references) at a concentration of 200 nM and a flow rate of 30 uL/min for 240 seconds. Regeneration between the two injections was done using 3M MgCl2, at 30 uL/min for 60 seconds. Using these two approaches, human/rat OX40 binding was assessed (table 16).
Background: ELISA stands for enzyme-linked immunosorbent assay.

For assay [1], the target named is T1, recombinant DR3 molecule (R&D) (UniProt Q93038 25-199, limits assumed).
T1 sequence (looked up): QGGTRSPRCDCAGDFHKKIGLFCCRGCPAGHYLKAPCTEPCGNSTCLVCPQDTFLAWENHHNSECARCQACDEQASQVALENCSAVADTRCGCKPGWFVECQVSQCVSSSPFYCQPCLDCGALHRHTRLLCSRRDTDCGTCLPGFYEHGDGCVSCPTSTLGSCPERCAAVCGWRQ
Briefly: direct ELISA on coated recombinant DR3, detection streptavidin-HRP, absorbance 450 nm [panel DR3]. As for the experimental part:
(§2) FIG. 13. A dose-response of various antibodies was incubated on various receptors, members of Tumor Necrosis Factor Receptor family, then detected with Streptavidin coupled with Horseradish Peroxidase enzyme. […] Each data point is the mean of duplicate values except for control curves that were performed in simplicate.
(§3) The experiment was conducted following the same protocol than previously described. […] These molecules were all coated at 2 μg/ml in PBS overnight at 4° C.

For assay [2], the target named is T2, recombinant DR6 molecule (R&D) (UniProt O75509 42-349, limits assumed).
T2 sequence (looked up): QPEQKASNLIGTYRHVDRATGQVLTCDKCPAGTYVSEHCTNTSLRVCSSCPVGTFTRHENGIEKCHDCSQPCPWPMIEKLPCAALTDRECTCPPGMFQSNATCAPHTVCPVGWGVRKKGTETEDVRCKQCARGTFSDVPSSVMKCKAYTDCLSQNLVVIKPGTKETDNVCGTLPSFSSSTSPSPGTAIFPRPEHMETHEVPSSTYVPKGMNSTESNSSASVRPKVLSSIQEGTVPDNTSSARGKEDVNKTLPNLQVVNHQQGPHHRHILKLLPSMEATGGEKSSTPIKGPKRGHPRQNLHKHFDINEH
The assay can be described thus: direct ELISA on coated recombinant DR6, detection streptavidin-HRP, absorbance 450 nm [panel DR6]. As for the experimental part: as §2, §3

Assay [3] concerns the target recombinant CD40 molecule (R&D) (UniProt P25942 21-193). The assay can be described thus: direct ELISA on coated recombinant CD40, detection streptavidin-HRP, absorbance 450 nm [panel CD40]. The procedure: as §2, §3
Assay [4] deals with T3, recombinant GITR molecule (R&D) (UniProt Q9Y5U5 26-161).
T3 sequence (looked up): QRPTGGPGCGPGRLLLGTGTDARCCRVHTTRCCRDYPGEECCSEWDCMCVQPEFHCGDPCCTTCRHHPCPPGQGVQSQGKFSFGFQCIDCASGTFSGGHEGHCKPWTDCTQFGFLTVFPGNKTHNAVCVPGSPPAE
The assay can be described thus: direct ELISA on coated recombinant GITR, detection streptavidin-HRP, absorbance 450 nm [panel GITR]. As for the experimental part:
as §2, §3

In assay [5] the target is T4, recombinant human OX40-his protein (human, UniProt P43489 29-214).
T4 construct: Secreted via the native signal peptide, which lies within residues 1-214; also called Human OX40R-His; histidine tagged human OX40 receptor extracellular domain
T4 sequence: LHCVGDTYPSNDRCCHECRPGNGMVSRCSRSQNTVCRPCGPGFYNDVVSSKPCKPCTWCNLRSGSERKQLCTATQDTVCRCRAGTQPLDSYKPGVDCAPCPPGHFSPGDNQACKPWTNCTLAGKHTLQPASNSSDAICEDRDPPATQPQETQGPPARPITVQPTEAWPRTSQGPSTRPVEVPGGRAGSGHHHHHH
Briefly: SPR, antibody captured on Protein A, OX40-his injected. The procedure:
(§4) Measurements were performed on CM5 sensor chips (Biacore 2000, GE Healthcare Europe GmbH, Cat. No: BR-1000-14) individually coupled with Protein A (Sigma, Buchs, Switzerland, Cat. No: P7837) using a commercial amine coupling kit (GE Healthcare Europe GmbH, Cat. No: BR-1000-50). 200-600 RUs of humanized antibody were captured. Dilution series of OX40-his were injected at a flow rate of 10 μl/min in HBS-EP buffer (GE Healthcare Europe GmbH, Cat. No: BR1001-88). After each binding event, the surface was regenerated with 10 μl of glycine buffer pH 1.5. Experimental data were processed using a 1:1 Langmuir model with local Rmax. The dissociation time was about 7 min. Measurements were performed in duplicates or triplicates and included zero-concentration samples for referencing. Both Chit and residual values were used to evaluate the quality of a fit between the experimental data and individual binding models.
Humanized antibody candidates were then assayed for their binding affinity by SPR and Fab thermal stability by DSC.
For orientation: SPR reads the build-up and loss of mass on a sensor chip optically.

The target of assay [6] is T4, recombinant human OX40-his protein. Described as above. The procedure: as §4
Finally, Surface Plasmon Resonance analyses were applied to control antibody variant affinities as described earlier.
The source holds these as a separate data set.

In assay [7] the target is T5, human OX40 on cells (human, UniProt P43489 29-277).
T5 construct: whole, on cells; also called OX40 on HPB-ALL cells
T5 sequence (looked up): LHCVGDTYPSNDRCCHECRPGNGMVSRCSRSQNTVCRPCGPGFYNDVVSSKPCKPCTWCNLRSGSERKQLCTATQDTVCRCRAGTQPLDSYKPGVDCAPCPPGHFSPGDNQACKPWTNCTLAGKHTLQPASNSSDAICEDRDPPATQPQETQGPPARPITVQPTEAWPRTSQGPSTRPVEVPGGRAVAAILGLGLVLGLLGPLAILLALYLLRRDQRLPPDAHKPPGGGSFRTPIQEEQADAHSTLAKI
The assay can be described thus: flow cytometry on HPB-ALL cells, 10 µg/ml antibody. The procedure:
HPB-ALL cells (DSMZ, Braunschweig, Germany, Cat. No: ACC483) were used as a human OX40 positive cell line for FACS staining. HPB-ALL were maintained in RPMI 1640 supplemented with 10% FCS and 100 U/ml Penicillin and 100 μg/ml streptomycin. 4×10e5 HPB-ALL cells in FACS buffer (PBS supplemented with 1% BSA and 0.1% sodium azide) were incubated for 45 min on ice with the anti-OX40 antibody of interest kept at a concentration of 10 μg/ml An irrelevant human IgG1 was used as an isotype control; the cells were incubated with a 1/200 dilution of anti-Human Fc-PE (EBioscience, Vienna, Austria) for 45 min on ice. Cells were then washed again and resuspended in 200 μl FACS buffer. The relative mean fluorescence of each sample was measured on a FACSCalibur instrument (BD Biosciences, Allschwil, Switzerland).
A first set of 16 humanized antibodies of human gamma one isotype were prepared. These first humanized candidates were assessed for transient expression in HEK293E cells and binding to HB-ALL cell by flow cytometry (Table 7).
(In general: Flow cytometry measures light scatter and fluorescence of single cells or particles in a stream.)

In assay [8] the target is T4, recombinant human OX40-his protein. Briefly: SPR (BIAcore 2000), antibody captured on Protein A, OX40-his injected. As for the experimental part:
SPR analysis was used to measure the association and dissociation rate constants for the binding kinetics of the anti-OX40 antibodies. The binding kinetics were measured on a BIAcore 2000 (BIAcore-GE Healthcare Europe GmbH, Glattbrugg, Switzerland) at room temperature and analyzed with the BiaEvaluation software (v4.1, GE Healthcare Europe GmbH).
as §4

The target of assay [9] is T5, human OX40 on cells. Briefly: cell-based or functional assay.
The target in assay [10] is T5, human OX40 on cells. Briefly: cell-based or functional assay. This is another data set of the same source.
In assay [11] the target is T5, human OX40 on cells. The assay can be described thus: cell-based or functional assay. This is another data set of the same source.
Another assay addresses T6, human OX40-Fc (human).
T6 construct: also called recombinant human OX40-Fc; human OX40 (HHHH)
Briefly: ELISA on coated human OX40-Fc, antibody 10 µg/ml. As for the experimental part:
as §1

Where a chain is given by its changes, count along the chain named. Names may count otherwise.

Chain of rat OX40-Fc (rat) (chain, as listed by the source limits assumed): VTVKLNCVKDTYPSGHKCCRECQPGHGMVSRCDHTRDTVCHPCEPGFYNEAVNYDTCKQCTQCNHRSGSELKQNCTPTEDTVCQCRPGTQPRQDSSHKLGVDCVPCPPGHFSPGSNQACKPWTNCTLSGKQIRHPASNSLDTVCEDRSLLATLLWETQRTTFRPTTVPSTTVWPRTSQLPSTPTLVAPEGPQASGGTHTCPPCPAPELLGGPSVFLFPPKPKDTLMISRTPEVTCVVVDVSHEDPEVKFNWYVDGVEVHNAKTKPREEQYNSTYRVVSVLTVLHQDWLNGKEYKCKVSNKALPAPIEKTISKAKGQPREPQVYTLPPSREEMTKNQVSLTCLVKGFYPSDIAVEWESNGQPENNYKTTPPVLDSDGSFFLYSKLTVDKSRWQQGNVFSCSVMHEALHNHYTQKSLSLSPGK
Chain of recombinant CD40 molecule (R&D) (P25942 21-193 limits assumed): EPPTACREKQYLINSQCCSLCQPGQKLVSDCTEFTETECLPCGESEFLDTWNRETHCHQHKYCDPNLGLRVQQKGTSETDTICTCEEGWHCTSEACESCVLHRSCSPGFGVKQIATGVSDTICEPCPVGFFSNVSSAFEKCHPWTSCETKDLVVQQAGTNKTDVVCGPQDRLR

B1: 7H11 IgG1 (Humanized 7H11-VH2 N58K-D54E with 7H11 VL1) (antibody, V domains shown)
VH: QVQLVQSGAEVKKPGASVKVSCKASGYTFTRYYMHWVRQAPGQGLEWMGWIYPGEGSTKYAQKFQGRVTMTRDTSISTAYMELSRLRSDDTAVYYCAREYGNYDYWGQGTLVTVSS
VL: DIVMTQSPDSLAVSLGERATINCKSSQSLLNSGNQKNYLAWYQQKPGQPPKLLIYGASTRESGVPDRFSGSGSGTDFTLTISSLQAEDVAVYYCQNDHSYPYTFGQGTKLEIKR
notes: also called 7H11_v8 IgG1
Turning to B1, the binding result (in the assay with rat OX40-Fc; in assay [1]; in assay [2]; in [3]; in [4]) was “no binding (tested: 10 µg/ml)” throughout.

B2: Humanized 7H11 VH2 V37M/VL1 (antibody, human IgG1, kappa, V domains shown)
VH: B1 VH with V37M, E55D, K59N
VL: B1 VL
notes: human IgG1, kappa
As for B2, in assay [5], the equilibrium dissociation constant (Kd) was determined as 2.87 nM.

B3: Humanized 7H11-VH2 N58K-D54S (antibody, human IgG1, kappa, V domains shown)
VH: B1 VH with E55S
VL: B1 VL
notes: human IgG1, kappa; also called 7H11 VH D54S
Regarding B3, the equilibrium dissociation constant (Kd) in assay [6] is 49 nM.

B4: Humanized 7H11-VH2 N58K-D54T (antibody, human IgG1, kappa, V domains shown)
VH: B1 VH with E55T
VL: B1 VL
notes: human IgG1, kappa; also called 7H11 VH D54T
Take B4: in assay [6], the Kd stood at 32 nM.

B5: Chimeric 7H11 IgG1 (antibody, V domains shown)
VH: QVQLQQSGPELVKPGASVKMSCKASGYTFTRYYIHWMNQRPGQGLEWIGWIYPGDGSTKYNEKFKGKTTLTADTSSSTAYMLLSSLTSEDSAIYFCAREYGNYDYWGQGTTVTVSS
VL: DIVMTQSPSSLSVSAGEKVTMSCKSSQSLLNSGNQKNYLAWYQQKPGQPPKLLIYGASTRESGVPDRFTGSGSGTDFTLTISSVQAEDLAVYYCQNDHSYPYTFGGGTKLEIK
notes: Mouse variable domains on human IgG1 heavy constant domains and human kappa constant domain; also called 7H11 (chimeric); chimeric 7H11 antibody
B5 returned an MFI with human OX40 on cells [7] of 132. The Kd in assay [5] amounted to 50 nM. In assay [8], the Kd stood at 50 nM, the koff came to 0.00066 s⁻¹ and the kon stood at 11600 M⁻¹ s⁻¹.

B6: recombinant human OX40L-Fc protein (Fc fusion, not shown: a dimerising Fc or GST; small tags and cut ends)
chain: QVSHRYPRIQSIKVQFTEYKKEKGFILTSQKEDEIMKVQNNSVIINCDGFYLISLKGYFSQEVNISLHYQKDEEPLFQLKKVRSVNSLMVASLTYKDKVYLNVTTDNTSLDDFHVNGGELILIHQNPGEFCVL
On to B6, for which the “donors reaching a 1.2 fold induction of CD4+CD25+ cells compared to SEB only” value in the assay with human OX40 on cells [9] came to 67%. The “Mean (fold increase proliferation vs control), MLR assay” value with human OX40 on cells [10] amounted to 1.54 fold. Besides, in the assay with human OX40 on cells [11], the “% donor responder (>2), SEB assay, IL-2 release” value is 83% and the “Mean, normalized IL-2 release, SEB assay” value is 4.26.

B7: 9B12 IgG1 (antibody, V domains shown)
VH: QVQLQESGPGLVKPSQTLSLTCAVYGGSFSSGYWNWIRKHPGKGLEYIGYISYNGITYHNPSLKSRITINRDTSKNQYSLQLNSVTPEDTAVYYCARYKYDYDGGHAMDYWGQGTLVTVSS
VL: DIQMTQSPSSLSASVGDRVTITCRASQDISNYLNWYQQKPGKAPKLLIYYTSKLHSGVPSRFSGSGSGTDYTLTISSLQPEDFATYYCQQGSALPWTFGQGTKVEIKR
notes: also called OX40mab24
Take B7: in the assay with human OX40 on cells [11], the “% donor responder (>2), SEB assay, IL-2 release” value turned out to be 50% and the “Mean, normalized IL-2 release, SEB assay” value amounted to 2.36. Besides, the binding result with rat OX40-Fc is listed as “no binding (tested: 10 µg/ml)”. For the same molecule, in the assay with human OX40-Fc, the binding result is recorded as “binds”.
